Data as given in publication PMC4144780, “MSRB7 reverses oxidation of GSTF2/3 to confer tolerance of Arabidopsis thaliana to oxidative stress” (Journal of Experimental Botany, 2014).

What was measured:
oxidized His–GSTF2 = target: T1, oxidized His–GSTF2 (A. thaliana, UniProt P46422 1-212, oxidized (positions not stated for this sample)); assay: co-IP; recombinant His–flag–MSRB7 and oxidized His–GSTs incubated with rabbit anti-flag antibody in IP buffer (15 mM HEPES pH 7.4, 1 mM EDTA, 1 mM DTT, 10 mM MgCl2, 30 mM KCl) 1 h at room temperature; Protein G–Sepharose; blot with mouse anti-His antibody; conditions: both partners purified
T1 construct: Glutathione S-transferase F2 (GSTF2), A. thaliana, locus At4g02520; cloned into pET-53-DEST; How it was oxidized is told only for the activity assay (0.5 mM HOCl, 40 min, stopped with 5 mM Met); also called recombinant GSTF2; MetO–GSTF2
T1 sequence (looked up): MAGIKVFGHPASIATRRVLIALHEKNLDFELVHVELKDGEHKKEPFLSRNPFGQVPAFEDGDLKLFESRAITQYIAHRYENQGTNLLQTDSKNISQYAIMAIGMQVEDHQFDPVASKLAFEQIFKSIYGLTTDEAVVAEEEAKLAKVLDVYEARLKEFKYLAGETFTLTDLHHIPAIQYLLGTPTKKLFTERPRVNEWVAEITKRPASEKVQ

oxidized His–GSTF3 = target: T2, oxidized His–GSTF3 (A. thaliana, UniProt Q9SLM6 1-212, oxidized (positions not stated for this sample)); assay: as above; conditions: both partners purified
T2 construct: Glutathione S-transferase F3 (GSTF3), A. thaliana, locus At2g02930; cloned into pET-53-DEST; How it was oxidized is told only for the activity assay (0.5 mM HOCl, 40 min, stopped with 5 mM Met); also called recombinant GSTF3; MetO–GSTF3
T2 sequence (looked up): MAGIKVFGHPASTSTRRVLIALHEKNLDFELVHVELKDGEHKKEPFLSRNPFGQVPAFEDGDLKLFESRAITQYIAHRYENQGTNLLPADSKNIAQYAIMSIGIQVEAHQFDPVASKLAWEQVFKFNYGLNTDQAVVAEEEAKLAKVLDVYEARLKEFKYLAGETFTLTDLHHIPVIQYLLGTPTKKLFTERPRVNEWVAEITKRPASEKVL

binding result (oxidized His–GSTF2): binds
binding result (oxidized His–GSTF3): binds
B1: His–flag–MSRB7 (enzyme, A. thaliana, UniProt Q8VY86 1-144, looked up)
chain: MAAMTAAAVPATGSFQKQDEEWRAVLSPEQFRVLRLKGTDKRGKGEFTKKFEEGTYSCAGCGTALYKSTTKFDSGCGWPAFFDAIPGAIKQTPEAGGRRMEITCAVCDGHLGHVFKGEGYSTPTDQRHCVNSVSLKFSSAGSSQ
notes: Methionine sulfoxide reductase B7 (MSRB7), A. thaliana, locus At4g21830; N terminus fused with a flag tag, cloned into pET-53-DEST; also called recombinant MSRB7; not shown: flag, N-terminal, kept
